From PMC7561103, “Notch dimerization and gene dosage are important for normal heart development, intestinal stem cell maintenance, and splenic marginal zone B-cell homeostasis during mite infestation” (PLoS Biology, 2020)
Numbering of substitutions follows the chain as printed. In names and notes the source's numbering stands. Blank lines part the entries; values can stand above or below the binder they belong to.

Key:
mouse RBPj (aa 53–474) = target: T1, mouse RBPj (aa 53–474) (mouse, UniProt P31266 53-474); assay: native gel or EMSA; Notch transcription complexes assembled on fluorescent DNA probes with CSL sites (1.75 nM each probe); RBPj 2.5 to 640 nM in 4-fold steps, with or without N1ICD and MAML at 2 uM; native polyacrylamide gel; conditions: both partners purified
T1 construct: RBPj (CSL), mouse, residues 53-474; also called CSL
T1 sequence (P31266 53-474): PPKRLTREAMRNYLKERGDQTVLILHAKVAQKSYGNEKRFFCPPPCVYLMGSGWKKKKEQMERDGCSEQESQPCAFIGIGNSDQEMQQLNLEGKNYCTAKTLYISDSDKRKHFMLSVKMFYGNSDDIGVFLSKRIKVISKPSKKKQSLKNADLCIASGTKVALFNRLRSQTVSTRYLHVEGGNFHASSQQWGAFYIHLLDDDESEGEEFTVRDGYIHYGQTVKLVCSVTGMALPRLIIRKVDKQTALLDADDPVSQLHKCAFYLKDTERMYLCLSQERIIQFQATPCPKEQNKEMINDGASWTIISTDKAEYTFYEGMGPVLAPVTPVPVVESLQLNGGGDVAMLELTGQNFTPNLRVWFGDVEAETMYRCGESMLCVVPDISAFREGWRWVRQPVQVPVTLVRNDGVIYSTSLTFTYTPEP

[1] = target: the molecule itself; assay: native gel or EMSA; 1xSPS probe; band intensities fitted to a 2-site binding model with cooperativity factor C (Kd,2nd = Kd,1st/C); RBPj 2.5 to 640 nM, N1ICD and MAML at 2 uM; association of two NTCs on DNA

binding result (mouse RBPj (aa 53–474)): binds
B1: human SMT3-MAML1 (aa 1–280) (domain or fragment, UniProt Q92585 1-280, looked up)
chain: MVLPTCPMAEFALPRHSAVMERLRRRIELCRRHHSTCEARYEAVSPERLELERQHTFALHQRCIQAKAKRAGKHRQPPAATAPAPAAPAPRLDAADGPEHGRPATHLHDTVKRNLDSATSPQNGDQQNGYGDLFPGHKKTRREAPLGVAISSNGLPPASPLGQSDKPSGADALQSSGKHSLGLDSLNKKRLADSSLHLNGGSNPSESFPLSLNKELKQEPVEDLPCMITGTVGSISQSNLMPDLNLNEQEWKELIEELNRSVPDEDMKDLFNEDFEEKKD
notes: Mastermind-like 1 (MAML1), human, residues 1-280; also called MAML protein; Mastermind-like

binding result (mouse RBPj (aa 53–474)): binds
B2: mouse N1ICD (aa 1744–2113) (domain or fragment, UniProt Q01705 1744-2113, looked up)
chain: VLLSRKRRRQHGQLWFPEGFKVSEASKKKRREPLGEDSVGLKPLKNASDGALMDDNQNEWGDEDLETKKFRFEEPVVLPDLSDQTDHRQWTQQHLDAADLRMSAMAPTPPQGEVDADCMDVNVRGPDGFTPLMIASCSGGGLETGNSEEEEDAPAVISDFIYQGASLHNQTDRTGETALHLAARYSRSDAAKRLLEASADANIQDNMGRTPLHAAVSADAQGVFQILLRNRATDLDARMHDGTTPLILAARLAVEGMLEDLINSHADVNAVDDLGKSALHWAAAVNNVDAAVVLLKNGANKDMQNNKEETPLFLAAREGSYETAKVLLDHFANRDITDHMDRLPRDIAQERMHHDIVRLLDEYNLVRSPQ
notes: Notch1 intracellular domain (RAM-ANK), mouse, residues 1744-2113; also called N1 RAM-ANK domain; WT N1ICD
fold stronger binding of the NTC to the second site than to the first site (cooperativity on 1xSPS) [1]: 5 fold

binding result (mouse RBPj (aa 53–474)): binds
B3: mouse N1^RAICD (aa 1744–2113) (domain or fragment, UniProt Q01705 1744-2113, looked up)
chain: B2 chain with R231A
notes: Notch1 intracellular domain (RAM-ANK), mouse, residues 1744-2113, with Arg1974 in the ANK domain changed to alanine; also called RA mutant; N1^R1974A
